The text below walks through data of publication PMC12440821, “ACAD10 and ACAD11 enable mammalian 4-hydroxy acid lipid catabolism” (Nature Structural & Molecular Biology, 2025).

Series [1] deals with the molecule itself. As to the kind of experiment: cryo-EM structure; single-particle cryo-EM of ACAD11 K* incubated with 100 uM 4-HV-CoA; 50 mM HEPES, 50 mM NaCl, 2% glycerol, 50 uM FAD, pH 7.5; D2 symmetry imposed; 2.6 A.
Series [2] deals with the molecule itself. As to the kind of experiment: cryo-EM structure; single-particle cryo-EM of ACAD11 A* incubated with 100 uM 4-PV-CoA; 50 mM HEPES, 50 mM NaCl, 2% glycerol, 50 uM FAD, pH 7.5; D2 symmetry imposed; 3.6 A.

Residue numbers refer to the chain shown, from its start.

As usually defined, the stoichiometry N is a count of units in the complex or per binding partner.

B1: ACAD11 K* mutant (kinase-inactive mouse acyl-CoA dehydrogenase 11) (enzyme, UniProt Q80XL6 1-779, looked up)
chain: METDVTSDTVEVLPQHKFDLRSLEAYLNQHLPGFGSDSRAVLTVTQYRSGQSNPTFFLQKGSQAYVLRKKPPGSLLPKAHKIDREFKIQKALFSIGFPVAKPLLYCRDASVIGTEFYVMEHVQGRIFRDFSIPGVSSAERAAIYVSVAETLAWLHSLDIRSLKLDKYGTGVGYCKRQVSTWTKQYQASAHQSIPAMDQLSTWLMKNLPDSDSEECLVHGAFKLDNIVFHPKECRVIAVLDWELSTFGHPLTDLAHLSLFYYWPRTLPMINRGSHIPENTGIPLMEELISIYCHRRGIDPNLPNWNFFMALSFFKLAGISQGVYRRYLMGNNSSEDSFLTANTVQPLAETGLQLSKRTLRTTPPQADAKSQLFAQSRRGQEVLTRVKQFMKQHVFPAEKEVAEYYAQSGNSAEKWGHPLVIEKLKEMAKAEGLWNLFLPAVSGLSQVDYALIAEETGKCFFAPDVFNCQAPDTGNMEVLHLYGSEQQKKQWLEPLLRGDITSVFCMTEPNVSSSDATNIECTIQRDGGGYIVNGKKWWSSGAGNPKCKIAIVLGRTESPSASRHRQHSMILVPMDTPGVELIRPLSVFGYMDNMHGGHWEVHFNHVRVPASNLILGEGRGFEISQGRLGPGRIHHCMRTVGLAERILQIMCDRAVQREAFKKKLYEHEVVAHWIAKSRIAIEEIRLLTLKAAHSIDTLGSASARKEIAMIKVAAPKAVCKIADWAIQVHGGAGVSQDYPLANMYAIIRTLRLADGPDEVHLSAIAKMELQDQARRLTARM
notes: catalytic aspartate of the kinase domain replaced with alanine; only the ACAD domains were resolved in the map; Cloned in pE-SUMOstar with a 5' SUMO tag; tag removed with Ulp1; Sample held FAD and 100 uM 4-HV-CoA; also called kinase-dead mutant; source: E. coli B21-CodonPlus (DE3)RIPL, purified (Ni-NTA, cation exchange, size-exclusion chromatography); not shown: SUMO, N-terminal, cleaved
For B1, in series [1], the “stoichiometry N” value turned out to be 4.

B2: ACAD11 A* mutant (ACAD-inactive mouse acyl-CoA dehydrogenase 11) (enzyme, UniProt Q80XL6 1-779, looked up)
chain: B1 chain with A220D, D753N
notes: catalytic aspartate of the ACAD domain replaced with asparagine; kinase and ACAD domains both resolved; Cloned in pE-SUMOstar with a 5' SUMO tag; tag removed with Ulp1; Sample held FAD and 100 uM 4-PV-CoA; also called ACAD-dead mutant; source: E. coli B21-CodonPlus (DE3)RIPL, purified (Ni-NTA, cation exchange, size-exclusion chromatography); not shown: SUMO, N-terminal, cleaved
In the case of B2, the “stoichiometry N” value in series [2] came out at 4.
